B1: Nibrin (Homo sapiens), O60934 (parent)
chain: MWKLLPAAGPAGGEPYRLLTGVEYVVGRKNCAILIENDQSISRNHAVLTANFSVTNLSQTDEIPVLTLKDNSKYGTFVNEEKMQNGFSRTLKSGDGITFGVFGSKFRIEYEPLVACSSCLDVSGKTALNQAILQLGGFTVNNWTEECTHLVMVSVKVTIKTICALICGRPIVKPEYFTEFLKAVESKKQPPQIESFYPPLDEPSIGSKNVDLSGRQERKQIFKGKTFIFLNAKQHKKLSSAVVFGGGEARLITEENEEEHNFFLAPGTCVVDTGITNSQTLIPDCQKKWIQSIMDMLQRQGLRPIPEAEIGLAVIFMTTKNYCDPQGHPSTGLKTTTPGPSLSQGVSVDEKLMPSAPVNTTTYVADTESEQADTWDLSERPKEIKVSKMEQKFRMLSQDAPTVKESCKTSSNNNSMVSNTLAKMRIPNYQLSPTKLPSINKSKDRASQQQQTNSIRNYFQPSTKKRERDEENQEMSSCKSARIETSCSLLEQTQPATPSLWKNKEQHLSENEPVDTNSDNNLFTDTDLKSIVKNSASKSHAAEKLRSNKKREMDDVAIEDEVLEQLFKDTKPELEIDVKVQKQEEDVNVRKRPRMDIETNDTFSDEAVPESSKISQENEIGKKRELKEDSLWSAKEISNNDKLQDDSEMLPKKLLLTEFRSLVIKNSTSRNPSGINDDYGQLKNFKKFKKVTYPGAGKLPHIIGGSDLIAHHARKNTELEEWLRQEMEVQNQHAKEESLADDLFRYNPYLKRRR
B2: DNA endonuclease ctp1 (Schizosaccharomyces pombe (strain ATCC 38366 / 972)), O74986 (parent)
chain: MNEEEHNKSVHWSIVYRQLGNLLEQYEVEIARLKSQLVLEKKLRIQVEKELESVKTKQISSSASSKVSSNTIQELDSTTDEDEIPGSDTVDEEDPSLNAPFSEKNQSVKIPPHSPTLPVQNASAFVKPISVPLGNVKEEKFLDTNPIGAESFESSDGEMHLRARSPEDMILLRETQPLAPLDINTLGVSDNRQKKGTEKKRPFEPEFLNDDVIRGNKRKALPAYECPDCQKFYELHGPVKESSVAPTWNDENRLGGGSLPNCKHQPLVQKVGRHRKLNIPKPIPNGFWESDFVD
partner: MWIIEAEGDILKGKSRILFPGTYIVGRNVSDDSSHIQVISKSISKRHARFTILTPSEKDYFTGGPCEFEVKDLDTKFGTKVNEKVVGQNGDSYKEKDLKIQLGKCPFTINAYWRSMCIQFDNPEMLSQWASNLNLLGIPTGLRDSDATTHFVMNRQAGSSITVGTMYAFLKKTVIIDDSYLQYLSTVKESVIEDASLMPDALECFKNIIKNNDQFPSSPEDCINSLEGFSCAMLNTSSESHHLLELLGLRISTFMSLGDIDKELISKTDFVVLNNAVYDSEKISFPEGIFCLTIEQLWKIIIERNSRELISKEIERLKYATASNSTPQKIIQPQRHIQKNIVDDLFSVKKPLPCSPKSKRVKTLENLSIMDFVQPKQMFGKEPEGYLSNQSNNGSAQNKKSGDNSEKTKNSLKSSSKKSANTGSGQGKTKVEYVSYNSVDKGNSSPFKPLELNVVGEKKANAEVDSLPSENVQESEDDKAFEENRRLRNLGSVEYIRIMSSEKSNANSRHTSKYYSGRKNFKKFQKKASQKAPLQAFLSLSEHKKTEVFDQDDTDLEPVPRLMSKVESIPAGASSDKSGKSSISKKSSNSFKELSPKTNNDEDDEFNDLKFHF
B3: DNA repair and telomere maintenance protein nbs1 (Schizosaccharomyces pombe (strain ATCC 38366 / 972)), O43070 (parent)
chain: B2 partner

In the first assay the parent is B1. To be noted: with mdc1_human MDC1, Q14676.
Target sequence in this assay (Q14676 whole entry): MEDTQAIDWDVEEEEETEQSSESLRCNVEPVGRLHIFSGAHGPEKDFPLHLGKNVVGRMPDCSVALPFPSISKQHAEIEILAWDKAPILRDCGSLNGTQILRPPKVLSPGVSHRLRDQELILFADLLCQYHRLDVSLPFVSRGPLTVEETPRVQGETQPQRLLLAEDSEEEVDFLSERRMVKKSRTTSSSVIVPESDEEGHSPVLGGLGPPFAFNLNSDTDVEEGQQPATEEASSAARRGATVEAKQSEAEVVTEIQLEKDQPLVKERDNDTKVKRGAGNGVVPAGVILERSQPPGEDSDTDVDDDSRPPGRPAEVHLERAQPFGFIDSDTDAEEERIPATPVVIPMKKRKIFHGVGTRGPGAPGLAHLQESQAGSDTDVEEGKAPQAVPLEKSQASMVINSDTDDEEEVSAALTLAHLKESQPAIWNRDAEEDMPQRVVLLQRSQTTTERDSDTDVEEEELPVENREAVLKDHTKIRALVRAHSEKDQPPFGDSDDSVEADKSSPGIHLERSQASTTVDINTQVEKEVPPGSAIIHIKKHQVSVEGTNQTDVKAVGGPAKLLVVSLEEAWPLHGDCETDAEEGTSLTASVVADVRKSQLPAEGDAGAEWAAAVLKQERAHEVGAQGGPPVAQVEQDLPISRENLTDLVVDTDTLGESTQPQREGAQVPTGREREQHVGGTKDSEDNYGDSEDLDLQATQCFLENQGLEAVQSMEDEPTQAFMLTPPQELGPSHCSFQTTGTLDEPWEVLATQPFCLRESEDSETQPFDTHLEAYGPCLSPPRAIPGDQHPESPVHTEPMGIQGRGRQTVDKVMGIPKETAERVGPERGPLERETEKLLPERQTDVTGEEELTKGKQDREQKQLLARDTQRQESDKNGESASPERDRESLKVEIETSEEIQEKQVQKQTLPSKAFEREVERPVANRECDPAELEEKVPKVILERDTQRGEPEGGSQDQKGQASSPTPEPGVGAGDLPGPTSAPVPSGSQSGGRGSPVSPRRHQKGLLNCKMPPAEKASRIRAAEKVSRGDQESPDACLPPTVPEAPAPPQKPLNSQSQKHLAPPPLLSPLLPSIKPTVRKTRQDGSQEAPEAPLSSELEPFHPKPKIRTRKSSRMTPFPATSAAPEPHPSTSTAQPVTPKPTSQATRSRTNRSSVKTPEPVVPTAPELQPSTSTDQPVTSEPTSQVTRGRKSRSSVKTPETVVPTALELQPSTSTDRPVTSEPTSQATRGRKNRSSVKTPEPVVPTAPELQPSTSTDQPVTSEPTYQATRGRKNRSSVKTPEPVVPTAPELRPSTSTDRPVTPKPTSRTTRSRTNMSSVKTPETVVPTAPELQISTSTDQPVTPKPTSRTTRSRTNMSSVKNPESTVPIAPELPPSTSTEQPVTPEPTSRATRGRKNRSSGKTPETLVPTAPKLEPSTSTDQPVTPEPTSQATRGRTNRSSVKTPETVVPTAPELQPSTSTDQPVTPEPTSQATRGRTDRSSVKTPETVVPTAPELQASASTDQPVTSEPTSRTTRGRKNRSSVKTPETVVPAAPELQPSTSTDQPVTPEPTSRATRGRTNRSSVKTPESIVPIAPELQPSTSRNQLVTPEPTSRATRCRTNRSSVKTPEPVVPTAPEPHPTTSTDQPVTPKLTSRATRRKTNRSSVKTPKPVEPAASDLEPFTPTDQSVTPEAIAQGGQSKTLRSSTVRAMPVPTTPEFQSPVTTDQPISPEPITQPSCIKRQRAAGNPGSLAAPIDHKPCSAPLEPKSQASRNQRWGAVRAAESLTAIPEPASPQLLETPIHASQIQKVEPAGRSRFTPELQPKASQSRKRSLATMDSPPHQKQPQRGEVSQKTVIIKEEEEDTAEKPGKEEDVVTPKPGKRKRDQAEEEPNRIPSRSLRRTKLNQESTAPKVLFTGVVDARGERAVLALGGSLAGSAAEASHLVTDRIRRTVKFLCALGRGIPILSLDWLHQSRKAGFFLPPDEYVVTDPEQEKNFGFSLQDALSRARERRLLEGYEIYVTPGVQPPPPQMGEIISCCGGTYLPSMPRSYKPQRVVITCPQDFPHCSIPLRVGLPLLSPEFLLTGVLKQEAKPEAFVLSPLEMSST
As to K160M, the “effect of a mutation on the interaction” value is “decreasing interaction”. On the same count and under the same terms, then S42A, with “decreasing interaction”; and R28A, with “decreasing interaction”; and S42A;K160M, with “disrupting interaction”.

A further assay covers variants of B2. The conditions noted are these: with nbs1_schpo nbs1, O43070.
For the variant D76A, the “effect of a mutation on the interaction” value was “increasing interaction”.

The variants in another assay derive from B3. The conditions noted are these: with mdc1_human MDC1, Q14676.
Target sequence in this assay (Q14676 whole entry): as above
Consider K45A, for which the “effect of a mutation on the interaction” value is reported as “decreasing interaction”.

With K76A, the “effect of a mutation on the interaction” value is “decreasing interaction”. Same read-out and setting: in the case of G103D it was “decreasing interaction”.

Values taken from IntAct's records for PubMed 19804756.
